In patent US20060140858A1, “Drug pre-targeting by means of bi-specific antibodies and hapten constructs comprising a carrier peptide and the active agent(s)” (Immunomedics, Inc., priority 2002, published 2006):
Each block holds one molecule with its values, some of them ahead of it.

What was measured:
[1] = biological target: carcinoembryonic antigen (CEA) (UniProt P06731); experiment: analytical size exclusion HPLC, radioiodinated bsAb with 10-20x molar excess of CEA
[2] = biological target: Ac-Lys(DTPA)-Tyr-Lys(DTPA)-Lys(Tscg-Cys)-NH2 (IMP 192); experiment: in vivo, calculated from biodistribution in GW-39 tumor-bearing mice, 1 h after 99m-Tc-IMP-192, assuming one peptide per bsAb
[3] = biological target: Ac-Lys(DTPA)-Tyr-Lys(DTPA)-Lys(Tscg-Cys)-NH2 (IMP 192); experiment: in vivo, calculated from biodistribution in GW-39 tumor-bearing mice, 3 h after 99m-Tc-IMP-192, assuming one peptide per bsAb
[4] = biological target: Ac-Lys(DTPA)-Tyr-Lys(DTPA)-Lys(Tscg-Cys)-NH2 (IMP 192); experiment: in vivo, calculated from biodistribution in GW-39 tumor-bearing mice, 24 h after 99m-Tc-IMP-192, assuming one peptide per bsAb
[5] = biological target: Ac-Lys(DTPA)-Tyr-Lys(DTPA)-Lys(Tscg-Cys)-NH2 (IMP 192); experiment: in vivo, calculated from biodistribution in GW-39 tumor-bearing mice, 30 min after 99m-Tc-IMP-192, assuming one peptide per bsAb
[6] = biological target: DOTA-Phe-Lys(HSG)-D-Tyr-Lys(HSG)-NH2 (IMP 241); experiment: in vivo pretargeting, GW-39 tumors, 3 h after 111In-IMP-241
[7] = biological target: carcinoembryonic antigen (CEA) (UniProt P06731); experiment: SE-HPLC, 125I-labeled bsMAb with an excess of CEA
[8] = biological target: peptide containing a single HSG substituent and a thiol (mono HSG peptide); experiment: BIAcore, mono HSG peptide coupled to a CM-5 chip
[9] = biological target: carcinoembryonic antigen (CEA) (UniProt P06731); experiment: immunoreactivity of 99mTc-hMN-14 Fab′; method and antigen not given

Chain of carcinoembryonic antigen (CEA) (P06731 35-685 limits assumed): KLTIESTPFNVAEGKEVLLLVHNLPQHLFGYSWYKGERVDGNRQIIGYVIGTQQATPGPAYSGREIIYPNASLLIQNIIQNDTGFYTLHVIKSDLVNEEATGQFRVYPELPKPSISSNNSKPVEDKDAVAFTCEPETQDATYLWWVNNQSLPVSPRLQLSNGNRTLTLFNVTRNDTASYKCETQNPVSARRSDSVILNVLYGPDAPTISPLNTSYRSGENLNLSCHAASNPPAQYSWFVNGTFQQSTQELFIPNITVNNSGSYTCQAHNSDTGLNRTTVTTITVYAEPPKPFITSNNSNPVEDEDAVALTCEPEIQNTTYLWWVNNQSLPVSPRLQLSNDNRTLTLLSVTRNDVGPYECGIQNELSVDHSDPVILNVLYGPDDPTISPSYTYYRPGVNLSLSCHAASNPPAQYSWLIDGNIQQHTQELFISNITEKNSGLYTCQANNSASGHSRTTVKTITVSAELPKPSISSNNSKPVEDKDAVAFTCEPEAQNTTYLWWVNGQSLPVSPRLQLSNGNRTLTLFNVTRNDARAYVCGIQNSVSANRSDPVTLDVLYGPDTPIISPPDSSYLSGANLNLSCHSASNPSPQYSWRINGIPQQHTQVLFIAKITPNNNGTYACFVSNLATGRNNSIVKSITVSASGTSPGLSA

percent bound [1]: 90%
% saturation of the available DTPA binding sites on the tumor bound bsAb [2]: 25.8%
% saturation of the available DTPA binding sites on the tumor bound bsAb [3]: 25%
% saturation of the available DTPA binding sites on the tumor bound bsAb [4]: 28%
% saturation of the available DTPA binding sites on the tumor bound bsAb [5]: 25.4%
Molecule: hMN-14 × 734 (Fab × Fab) bi-specific antibody (bispecific antibody)

ratio of the % ID/g of the peptide compared to the bsMAb in the tumor [6]: 3.9
percent of radiolabeled product shifting to a higher molecular weight [7]: > 90%
Kd [8]: 1.5 nM
Molecule: hMN-14 × m679 F(ab′)2 bsMAb (bispecific antibody)

immunoreactive fraction [9]: 92%
B1: humanized MN-14 (hMN-14) Fab′-SH, 99mTc-labeled (Fab, INN chains, looked up, V domains shown)
VH: EVQLVESGGGVVQPGRSLRLSCSASGFDFTTYWMSWVRQAPGKGLEWIGEIHPDSSTINYAPSLKDRFTISRDNAKNTLFLQMDSLRPEDTGVYFCASLYFGFPWFAYWGQGTPVTVSS
VL: DIQLTQSPSSLSASVGDRVTITCKASQDVGTSVAWYQQKPGKAPKLLIYWTSTRHTGVPSRFSGSGSGTDFTFTISSLQPEDIATYYCQQYSLYRSFGQGTKVEIK
modifications: Fab′ 99mTc label
